Measured values published in publication PMC11969024 (2025).

B1: peptide HD2 (from tick evasin EVA4) / CCL4 (biotinylated, synthetic) (parent complex)
chain 1: EEDDYTAYAPLTCYFT
chain 2: APMGSDPPTACCFSYTARKLPRNFVVDYYETSSLCSQPAVVFQTKRSKQVCADPSESWVQEYVYDLELN

Variants of: B1

Variant | enrichment
chain 1 A7L | -0.0909 log2 (difference from the parental peptide)
chain 1 A9N | -4.06 log2 (difference from the parental peptide)
chain 1 D4K | -5.45 log2 (difference from the parental peptide)
chain 1 A7P | 1.22 log2 (difference from the parental peptide)
chain 1 E2K | -3.72 log2 (difference from the parental peptide)
chain 1 T16F | -0.0684 log2 (difference from the parental peptide)
chain 1 T16W | -0.489 log2 (difference from the parental peptide)
chain 1 F15E | -1.26 log2 (difference from the parental peptide)
chain 1 T6R | -0.342 log2 (difference from the parental peptide)
chain 1 E2T | -2.75 log2 (difference from the parental peptide)
chain 1 E2L | -1.83 log2 (difference from the parental peptide)
chain 1 Y8E | -5.75 log2 (difference from the parental peptide)
chain 1 T16A | 1.47 log2 (difference from the parental peptide)
chain 1 Y14Q | -2.97 log2 (difference from the parental peptide)
chain 1 T12Y | 2.43 log2 (difference from the parental peptide)
chain 1 L11H | 1.71 log2 (difference from the parental peptide)
chain 1 D4P | -1.94 log2 (difference from the parental peptide)
chain 1 T6W | 0.361 log2 (difference from the parental peptide)
chain 1 A9P | -7.37 log2 (difference from the parental peptide)
chain 1 D3H | -1.73 log2 (difference from the parental peptide)
chain 1 C13M | -2.33 log2 (difference from the parental peptide)
chain 1 A7K | 1.68 log2 (difference from the parental peptide)
chain 1 Y14P | -6.84 log2 (difference from the parental peptide)
chain 1 F15Y | 0.0726 log2 (difference from the parental peptide)
chain 1 T12N | 1.46 log2 (difference from the parental peptide)

Variant | enrichment
chain 1 F15N | -0.875 log2 (difference from the parental peptide)
chain 1 Y8T | -6.05 log2 (difference from the parental peptide)
chain 1 A9L | -6 log2 (difference from the parental peptide)
chain 1 A7V | -1.76 log2 (difference from the parental peptide)
chain 1 A9R | -1.96 log2 (difference from the parental peptide)
chain 1 Y8L | -7.61 log2 (difference from the parental peptide)
chain 1 Y14A | -3.96 log2 (difference from the parental peptide)
chain 1 D4Y | -0.805 log2 (difference from the parental peptide)
chain 1 C13E | -9.5 log2 (difference from the parental peptide)
chain 1 Y14S | -3.51 log2 (difference from the parental peptide)
chain 1 P10D | -2.89 log2 (difference from the parental peptide)
chain 1 D4A | -3.33 log2 (difference from the parental peptide)
chain 1 F15T | 1.23 log2 (difference from the parental peptide)
chain 1 C13K | -8.69 log2 (difference from the parental peptide)
chain 1 E1P | -1.59 log2 (difference from the parental peptide)
chain 1 Y14N | -3.47 log2 (difference from the parental peptide)
chain 1 Y5C | -8.73 log2 (difference from the parental peptide)
chain 1 Y8S | -2.96 log2 (difference from the parental peptide)
chain 1 D3T | -2.72 log2 (difference from the parental peptide)
chain 1 Y5S | -5.86 log2 (difference from the parental peptide)
chain 1 Y14D | -5.1 log2 (difference from the parental peptide)
chain 1 A9K | -3.61 log2 (difference from the parental peptide)
chain 1 T12D | -0.0833 log2 (difference from the parental peptide)
chain 1 T6Q | 0.872 log2 (difference from the parental peptide)
chain 1 T6S | 2.87 log2 (difference from the parental peptide)

Variant | enrichment
chain 1 C13T | -4.09 log2 (difference from the parental peptide)
chain 1 Y5P | -6.3 log2 (difference from the parental peptide)
chain 1 Y5F | 0.426 log2 (difference from the parental peptide)
chain 1 P10Q | -4.96 log2 (difference from the parental peptide)
chain 1 D3Y | -1.16 log2 (difference from the parental peptide)
chain 1 T16C | -0.0497 log2 (difference from the parental peptide)
chain 1 C13L | -6.3 log2 (difference from the parental peptide)
chain 1 T6N | 1.16 log2 (difference from the parental peptide)
chain 1 Y8W | -0.806 log2 (difference from the parental peptide)
chain 1 A7I | -0.497 log2 (difference from the parental peptide)
chain 1 Y5R | -5.62 log2 (difference from the parental peptide)
chain 1 A7T | -0.191 log2 (difference from the parental peptide)
chain 1 A9T | -2.45 log2 (difference from the parental peptide)
chain 1 A9E | 0.657 log2 (difference from the parental peptide)
chain 1 E1A | -0.519 log2 (difference from the parental peptide)
chain 1 F15H | 0.795 log2 (difference from the parental peptide)
chain 1 T12E | -1.15 log2 (difference from the parental peptide)
chain 1 A7G | 0.187 log2 (difference from the parental peptide)
chain 1 A9W | -3.72 log2 (difference from the parental peptide)
chain 1 D3P | -2.56 log2 (difference from the parental peptide)
chain 1 L11N | -3.21 log2 (difference from the parental peptide)
chain 1 Y5E | -2.05 log2 (difference from the parental peptide)
chain 1 Y14E | -5.52 log2 (difference from the parental peptide)
chain 1 F15L | 0.921 log2 (difference from the parental peptide)
chain 1 D4S | -3.38 log2 (difference from the parental peptide)
